# Results: patent US10100341B2, “Tailored oils produced from recombinant oleaginous microorganisms” (Corbion Biotech, Inc., priority 2011, dated 2018)
# B1: NRAMP metal transporter promoter/5′UTR: putative nitrogen-regulated promoter/5′UTR, SEQ ID NO: 56 (nucleic acid, listed as Prototheca moriformis)
# DNA: ACTAATTGCAATCGTGCAGTAATCATCGATATGGTCACAAGTAGATCCCCTACTGACACCCTCTCGTACATGTAGGCAATGTCATCGGCGCCGTCCTGCTGACCGATGCCGACGTAGCAGAGCAGACCCGGGCCGATCTGGGATACGAGCCGGCCCTCCACCTGCGCTCGAGGTGGAATCAAGTAAATAACCAATACACTTTTCGACACCACACAGAGTTGCACGGACGGTGGCGTACCTCTACGCTCGCGCTCTTCACGCGCTGGACGACCGCACGCATGAGCCCGGGTGGCTTGGTCTGGGCTGCAAAAATGCACAACAAACAAGTATCAGACGCTCATGGATGCACACGCGCTCCCAAGCACGCTCAGACTAAATATTACAGTAGCTCGTATCTGATAAGATATCGAGACATACCGCTCAACTCACCCGCAAACTGCGCCCCGCCAGGTGATGCGCACAGGGCCCCACCATGCGATCCATCGCATCGCTCCTCGAGGGCGCTATCACGTGGCCGGAGAGCGTTCACAGCGTACGCCACTGTATCTGGGCGGTATGCGGTCCGTCAACATGGAGACAGATACCCGCACCACCACCTTGCAAGCTCTTCCATATTGGAAGTAGAAAATTGTAATTGTATCATCGCACGAGGGGCCAACTTGCCGTCGGCGAGCTGGGCGACGAACACCACCTGGACGTTGTCGAGACTCGCTCGTGCCGTGCGCCGGGCCGCTGGGTATCCAGACCGTCGCC
# B2: Aat02-Amino acid transporter 02 promoter/5′UTR: putative nitrogen-regulated promoter/5′UTR, SEQ ID NO: 63 (nucleic acid, listed as Prototheca moriformis)
# DNA: AGAGAGCGGAGGTGGGGTTGTGAGGTGGGGTTGCTGACCAGGAGCTCGCGTCGCCGAGCGCGACTCGCACACGGTCCAGTTACCCCCCCCTCCGCCCAAACGCAAGCCTCCCATCTTGATGCCTTTCCGGCCACCTATACTATTTCTTAGTTCGCTGTAACATCCAGACCGTCCTGAATAATAACAATGCCCTGTGTCAAGTGCATTCCTAAAAAAATTCTGTCCCAACCAACAATCCCACCTGAAATACCACCAGCCCTGCCCAGTACACTCTTCCAATACCATCTCCCTACCTCCACGCGCAAGCGACCCCCATGCGCGACCAGGCTCGAAAGTGATTTATGACTTGAGACGAGCGAGTGGCGGCGCGGTCGACTGCCTTTTCATCACGTGCCGTACGTCGGCGACCGCTAGGGCTTTGCACGGCAACGCACGGCTTCGCCAACCCGACCAGCCAGGACCTCGACTACTCTACCGCGAATTCGCCTCAAGAAGTCGCCAAATGTGCCATACACCATTCCTTACAGCACTGTTCAAACTTGATGCCAATTTTGACATTCGGGTTGCTCGTTGGCTGCGCCCACATCGGCCGTGAGTGCAGCAGGCGGGATCGGACACGGAGGACGCGGCGTCACGCCCCGAACGCAGCCCGTAACTCTACATCAACACGACGTGTTGCGTAATCCCGCCCGGCTGCGCATCGTGCCAACCCATTCGCGATGGATGGTCGGAAAATGGTGTGCCAACTGCCCTGAGGGAGGCTCTCGCGAAACGGGCACGTCCCTGAAACCGAAACTGTGGCCTTGTCGTCGGCCACGCAAGCACGTGGACCCTAAACACCAAGAAAATCAGTAAACAAGGTTGACATCCTCTACGGGCGAATTGTTTGCCCAACCCTTCATCGCACACTGCCATTATAATGCATCTAGCTCGGCGACAAGTTTAGAAAAGGCAGGCTGCATTGTTCCATTTCGCCGTGGCGGCGTGGGTGCCCATTTTACGAGGTTTGGGCTCCCGGGCAGCGACCGAGCCAGGTCGAGTCCCTCTCGCCCGTCGACAATGTTGCGAACCCCACAAGCGGCTAACAACAACTTGATGGTACCTGTACACTGCCAATTCCTTCTTCCCCGGCCGAGGTTTACACGTGATGGCCATGGCTTCGCATTCAGGCCGACTTCCCATTCCGACTTTCCAGAGGGTCCGCGGACGCTGGGGGTTGGCTGCCTGAGGCCCACCCTTTGTTCCCCGCGTCCCGACAAACACAATTGCGTTACATAAGGGGGAGCCGCCCCCGTTCAGAGTGCAGAAATCTTTCACTATATTTTCCAGTCGTCAGCGAAATCAAGT
# B3: Aat05-Amino acid transporter 05 promoter/5′UTR: putative nitrogen-regulated promoter/5′UTR, SEQ ID NO: 66 (nucleic acid, listed as Prototheca moriformis)
# DNA: CCGAGCAGTTCATGGCCAAGTACAAGGACTAGAGACCGGAGGTCGGTAGGCTGAATGGAGCTGGCGTCGTCGTGCGCGACGTGCACGCGATGCGATACTACGACCCCACAAACGCATGCCTCCCATCTTGATGCCTTTCCGGCCATTTATACTATTTCTCATTTCGCTGTAACATCTTGAATAATAGAATTGCCCTGTGTCAAGTGGATTCCAAGAAATATTCTGTCCCAACAAAACAACCCAACCTGAAAACAACCTCAAATACCACCAGCCCTGCCCACCTGCCCAGTACACTTTTCCAATACCATCTCCCTACCTTCACGCGCAAGCGGCACCCATGCGCGACCAGGCTCGAAAGGATTTCACGACTCAGGACGAGCGAGTGGCGGCGCGACCGCCTGCCTGTTCGTCACGTGCCGTACGTCGGCGACCGCTAGAGCTTTGCCTGGCAACCCCCGGCTTCGTCAACCCGGCCAGCCAGGATCTCGACCACTCTACCGCGAAATCGCCTCAAGAAGTCGCCAAAAGTGCCGTACACCATGCTTCGCAGCGCTGTTCAAACTTGATGCCAATCTTGACAATCAGGTTGCTCGTTGGCTGCGTCCACATCGGCCGTGATTGCAGCAGGCGGGGATCGGACACGGAGGACGCGGCGTCACGCCGCGAACGCAGCCCGTAACTCTACATCAACGCGATATGTTGCGTAATCCCGCCCGGCTGCGCATTGTGACAACCCATTCGCGATGGATGGTCGGAAAATGGTGTGCCAACTGCCCTGAGGGACTCTCTCGCGAAACGGGCACGTCCCTGTATCCGAAACTGTGGCATGGCCTTGTCGACCACGCAAGCACGTGGACCCTAACACCACGAAAATAAGTAAAAAAGGTTGACATCCTCTACGAGCGAATTGTTTGCTCGACCCTTCATCGCACACTGTCATTATAATGCATCTAGCTCGGCGACAAGTTTAAAAAAGGCAGGCTGCATTATTCCATTTTGCCGTGGCGGCATGGGTGCCCATTTTATGAGGTTTGGGCTCTTGGGCAGCGACCGAGCCAGGTTGAGTCCCTCTCGCCCGTCGACAACGTTCCAAAGCCCATAAGTGGCTAATAAACAACTTGATGGTACCTGTACACTGCCAGTTCCTTCTTCCCCGGCCGAGGTTTACACGTGATGGCCATGGCTTCGCGTTTCAGGCTGACTTCCCATTCCGACTTTCCAGAGGGTCCGCGGACGCCGGGGGTTGGCTGCGTGAGGCCCACCCCTTGTTCCCCGCGTCCCGACAAACACAATTGCGTTACATAAGGGGGAAGCCGCCCCCCGTTCAGAGTGCAAACATCTTTCATTATATTTTTCAGTCGTCAGCGAAATCAAGTATGTCGCTGACAGGCATGAAGGCC
# B4: Aat03-Amino acid transporter 03 promoter/5′UTR: putative nitrogen-regulated promoter/5′UTR, SEQ ID NO: 64 (nucleic acid, listed as Prototheca moriformis)
# DNA: GATGGTGGGGTGTCTGCCTTGGGCTGGGTGATGGAGGCTGGTGGTGCGCGGGTTTCCTGATGCATTCTATCTACGCAGTGTCATGGTGTCCATTCCACACACCAGTACACCCTTACACTAAGGATCCATCCCTCCTTCCCTCTTCAGGACTACATGGACCCCACGAGCTACCGACCGGGCTTTCTCAAAAACGTCAAGGTCATGTTTGACATGCGGGACGTGGTGGACGACGTGCAAGGTGCGTCCGGAGTGCGCGCAAATGAGCAAGTCGGGCAATGTGTCGGGGTGGGCACCGGGGCTGGAGATCCGCGATCCCCGAGAAAACGCCGTACCACCCCCCGCGCTATTCCCTCGATTGCGCGCAGATGTGGTGACCGACACGGGGGACAACCTGGCGGACATGGGGCGCCGGACCTGGAAGCACGCCAAGTCGCACACGGGGAGGCTCGTGCAGTCCCCCCCATCGTACCTCAAGGGTCTCTTTGGTCGCGATCCAAAGTACGCTGGTGGCATGGCATGCCCGAAATGAACATCATGTGTGATCTCCGATTGCCAATGGCCACCTCCACGGACCACCTTGCAGGCGGAAGCGCAATCCAGGGCCCGAGCCTGACGAGGACGGAGACTCCTCGTCCAGCGCGGGGTCCCCGACCCGACGCAGCAGCCGACCCCTGCTAACCCGGCAACGATCGGACCAGCAACCTTGCTGTAGTTCCGATCCGTGATGACGGGCATTGCCGCCGCTCGATCCGCTTTGATGACTGTCTATTATTTGCGCGGAGCCCCCTCGGAACCCTACCCCGCTCTTGCAAGCCCCTTGCATCGGAGATCCTCGTGCGCCCGCCATGACCCCACTGGATTGCCCAACATCCTTCTTTATCGTGTAAAATGTGATTCCTCGGCTGCAATCGACTGGCCTTCGCTTCTGGCCCCAAGAGGGCTCGAACGTGCGGCAGCGAGGGCGCTGACACACCCAAGCCCTAGGGCTTTCAACGTCGGCTGCCAGGCCGGATAGGGGGATCGCCTCCTTTCCACCACCCACCTACGAGGGATTCGAGTCGGCTTCCAGCTCAGCTATTCGGCCGCGCCCCCGGCCCTGCAGACGTCCTCCAGTTTCCGAACAGGTCGCTCTCAGAACACCTGCCGCGGCTGCGATACGGCAGGCTCTCAAAGCGTCGAC
# Test system: Prototheca moriformis (UTEX 1435)
# Experiment: cDNA abundance by real-time RT-PCR under nitrogen depletion
# Assay type: cell-based
# Settings: after 24 hours of culture in low nitrogen medium
# Method: A cDNA library was generated from Prototheca moriformis (UTEX 1435) using standard techniques. The Prototheca moriformis cells were grown for 48 hours under nitrogen replete conditions. […] After about 24 hours in culture, the nitrogen supply in the media was completely depleted. The collected samples were immediately frozen using dry ice and isopropanol. Total RNA was subsequently isolated from the frozen cell pellet samples and a portion from each sample was held in reserve for RT-PCR studies. The rest of the total RNA harvested from the samples was subjected to polyA selection. Equimolar amounts of polyA selected RNA from each condition was then pooled and used to generate a cDNA library in vector pcDNA 3.0 (Invitrogen). Roughly 1200 clones were randomly picked from the resulting pooled cDNA library and subjected to sequencing on both strands. Approximately 68 different cDNAs were selected from among these 1200 sequences and used to design cDNA-specific primers for use in real-time RT-PCR studies. RNA isolated from the cell pellet samples that were held in reserve was used as substrate in the real time RT-PCR studies using the cDNA-specific primer sets generated above. This reserved RNA was converted into cDNA and used as substrate for RT-PCR for each of the 68 gene specific primer sets. […] As discussed in the specification, nitrogen depletion/limitation is a known inducer of lipogenesis in oleaginous microorganisms. Fold increase refers to the fold increase in cDNA abundance after 24 hours of culture in low nitrogen medium.
row,Molecule,Fold increased (cDNA abundance)
1,B1,9.65
2,B2,6.5
3,B3,6.71
4,B4,7.87
